Tested on: isolated microspores of Triticale (variety Sunray)
Experiment: CPP delivery of GUS enzyme into isolated microspores, GUS staining
Type: cell-based
Conditions: GUS enzyme cargo:CPP 1:4, 1 hour at 37° C., three repeats
Description: Triticale line Sunray grown in a growth cabinet with a photoperiod of 19 h day (intensity 300 μE m-2 s-1), and temperature 18-15° C. (day-night) with a relative humidity at about 70% was used as the donor plant material. The plants were fertilized every 2 weeks (20-20-20, 200 ppm) and treated with 2.5 ml I-1 Tilt™ (propiconazole, Syngenta) during the tillering stage and Intercept™ (0.004 g per litre of soil, Imidacloprid, Bayer) once sufficient root development was established. The first 10 tillers from each pot were harvested when the spike was at 3-4 cm, depending on the crop, from emergence from the boot. These tillers (to be used for microspore isolation) were subjected to pre-treatment in a refrigerator (4° C.) for 21 days with their bases in distilled water and their heads wrapped in aluminum foil. After 21±3 days of pre-treatment, the spikes were excised from their tillers and after an evaluation of their general appearance, only the most homogenous spikes were used. After confirming microspores at mid to bi-nucleate stage from a median floret, using acetocarmine staining, the tillers were processed for extraction.
Awns were removed with scissors in a laminar flow hood. […] After counting the cells using a haemocytometer, aliquots of 100,000 cells in 200 μl volume were prepared in 2 ml microcentrifuge tubes to be ready for transduction. […]

B1: Gus protein: β-Glucuronidase (GUS; Sigma Aldrich, Escherichia coli Type VII-A), cargo used alone (protein, UniProt P05804 1-603, looked up)
Beta-glucuronidase: MLRPVETPTREIKKLDGLWAFSLDRENCGIDQRWWESALQESRAIAVPGSFNDQFADADIRNYAGNVWYQREVFIPKGWAGQRIVLRFDAVTHYGKVWVNNQEVMEHQGGYTPFEADVTPYVIAGKSVRITVCVNNELNWQTIPPGMVITDENGKKKQSYFHDFFNYAGIHRSVMLYTTPNTWVDDITVVTHVAQDCNHASVDWQVVANGDVSVELRDADQQVVATGQGTSGTLQVVNPHLWQPGEGYLYELCVTAKSQTECDIYPLRVGIRSVAVKGEQFLINHKPFYFTGFGRHEDADLRGKGFDNVLMVHDHALMDWIGANSYRTSHYPYAEEMLDWADEHGIVVIDETAAVGFNLSLGIGFEAGNKPKELYSEEAVNGETQQAHLQAIKELIARDKNHPSVVMWSIANEPDTRPQGAREYFAPLAEATRKLDPTRPITCVNVMFCDAHTDTISDLFDVLCLNRYYGWYVQSGDLETAEKVLEKELLAWQEKLHQPIIITEYGVDTLAGLHSMYTDMWSEEYQCAWLDMYHRVFDRVSAVVGEQVWNFADFATSQGILRVGGNKKGIFTRDRKPKSAAFLLQKRWTGMNFGEKPQQGGKQ
  Average Transduction Efficiency: not capable of transducing itself

Reference: patent publication US20160340683A1, “NANOCARRIER BASED PLANT TRANSFECTION AND TRANSDUCTION” (HER MAJESTY THE QUEEN IN RIGHT OF CANADA AS REPRESENTED BY …, priority 2007, published 2016)
